Results reported in publication PMC5965250.

Molecular target: HyHEL-10 antibody
Test: SPR; binding affinity of the HEL variants to HyHEL-10; who was immobilised is not shown (Fig. S20)

fold weaker binding affinity than native HEL: 6000 fold
Substance: HEL-K96Nvoc (10) (from UniProt P00698 19-147) (natural protein)
